Test results reported in article PMC5577506, “Intrinsic disorder in the partitioning protein KorB persists after co-operative complex formation with operator DNA and KorA” (Biochemical Journal, 2017).
Blank lines part the entries; values can stand above or below the binder they belong to.

What was measured:
[1] = target: T1, KorB (Escherichia coli (expression host); …, UniProt P07674 1-358); experiment: NMR (15N-1H TROSY titration), SAXS, SANS; KorB dimer:OB 1:1; DBD and N-terminal peaks lost, CTD unaffected; Buffer, salt, pH and temperature not given in the material; NMR at 800 MHz; SANS in 0, 65 or 100% D2O; conditions: protein: recombinant; tags: His-tag; chain copies: 2; blunt (only one strand printed; complement implied)
[2] = target: (NΔ150)KorB (Escherichia coli (expression host); …, UniProt P07674 151-358, del1-150); experiment: SAXS, SANS; complex mass consistent with protein + DNA (67.5 kDa calculated); Buffer, salt, pH and temperature not given in the material; NMR at 800 MHz; SANS in 0, 65 or 100% D2O; conditions: protein: recombinant; tags: His-tag; chain copies: 2; blunt (only one strand printed; complement implied)
[3] = target: T1, KorB; experiment: CD; 1 equivalent KorB; change at 280 nm; Buffer, salt, pH and temperature not given in the material; NMR at 800 MHz; SANS in 0, 65 or 100% D2O; conditions: protein: recombinant; tags: His-tag; chain copies: 2; blunt (only one strand printed; complement implied)
[4] = target: KorB;KorA (Escherichia coli (expression host); …, UniProt P07674;P03052 1-358;1-101, |); experiment: NMR (15N-1H TROSY), CD, SANS; ternary KorA/KorB/OAOB complex; Buffer, salt, pH and temperature not given in the material; NMR at 800 MHz; SANS in 0, 65 or 100% D2O; conditions: protein: recombinant;recombinant; tags: His-tag;none; chain copies: 2;2; blunt (only one strand printed; complement implied)
[5] = target: KorA (Escherichia coli (expression host); …, UniProt P03052 1-101); experiment: CD; 1 equivalent KorA; change at 280 nm; Buffer, salt, pH and temperature not given in the material; NMR at 800 MHz; SANS in 0, 65 or 100% D2O; conditions: protein: recombinant; tags: none; chain copies: 2; blunt (only one strand printed; complement implied)
[6] = target: T2, KorB (ParB family protein from the IncP1 plasmid RK2) (plasmid RK2 (IncP1), UniProt P07674 1-358); experiment: NMR titration; ^15N-^1H TROSY at 800 MHz of ^15N/^2D KorB (~0.1 mM dimer) titrated with unlabelled KorA (1 and 2 equivalents); 10 mM sodium phosphate pH 7.0, 100 mM NaCl, 0.1 mM EDTA, 30°C; conditions: both partners purified
T2 construct: KorB of plasmid RK2 (IncP1), 358 amino acid residues per subunit, homodimer; also called WT KorB; ^1H-KorB; source: E. coli BL21(λDE3), His-tagged fusion, purified as described previously [21]; also partially deuterated (~70% D2O M9 medium) and ^15N-labelled
T2 sequence (looked up): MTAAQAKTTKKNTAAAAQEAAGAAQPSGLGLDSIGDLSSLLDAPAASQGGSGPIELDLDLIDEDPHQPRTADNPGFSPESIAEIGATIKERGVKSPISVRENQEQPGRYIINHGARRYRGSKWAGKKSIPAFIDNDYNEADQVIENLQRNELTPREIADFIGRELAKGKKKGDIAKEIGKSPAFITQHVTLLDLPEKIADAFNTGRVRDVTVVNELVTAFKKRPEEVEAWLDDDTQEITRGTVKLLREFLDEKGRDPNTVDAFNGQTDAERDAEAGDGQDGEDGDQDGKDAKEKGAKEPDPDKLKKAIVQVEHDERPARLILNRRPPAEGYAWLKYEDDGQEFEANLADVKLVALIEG

B1: OB (dsDNA)
DNA 1: CGAGAATTTTAGCGGCTAAAAAGGGC
DNA 2: GCCCTTTTTAGCCGCTAAAATTCTCG
binding result [1]: binds
binding result [2]: binds

B2: OAOB (dsDNA)
DNA 1: GGACGAGTTTTAGCGGCTAAAGGTGTTGACGTGCGAGAAATGTTTAGCTAAACTTCG
DNA 2: CGAAGTTTAGCTAAACATTTCTCGCACGTCAACACCTTTAGCCGCTAAAACTCGTCC
binding result [3]: binds
binding result [4]: binds
binding result [5]: binds

stoichiometry N [6]: 2 KorA dimers per KorB dimer
B3: KorA (repressor from the plasmid RK2) (natural protein, plasmid RK2 (IncP1), UniProt P03052 1-101, looked up)
chain: MKKRLTESQFQEAIQGLEVGQQTIEIARGVLVDGKPQATFATSLGLTRGAVSQAVHRVWAAFEDKNLPEGYARVTAVLPEHQAYIVRKWEADAKKKQETKR
notes: KorA of plasmid RK2; used as a dimer; the domain scheme runs from residue 1 to 101; also called ^1H-KorA; ^2D-KorA; source: E. coli BL21(λDE3), without a tag, purified as before [14]
